# Bridge positions count the residues as written; N and C are the ends. Square brackets hold non-standard residues; d marks the D form. dPhe(3-Cl) = N[C@H](Cc1cccc(Cl)c1)C(=O)O; dPhe(4-Cl) = N[C@H](Cc1ccc(Cl)cc1)C(=O)O; dPhe(4-Me) = Cc1ccc(C[C@@H](N)C(=O)O)cc1; dPhe(2-Cl) = N[C@H](Cc1ccccc1Cl)C(=O)O; dPhe(4-F) = N[C@H](Cc1ccc(F)cc1)C(=O)O; 2Nal = N[C@@H](Cc1ccc2ccccc2c1)C(=O)O; d1Nal = N[C@H](Cc1cccc2ccccc12)C(=O)O; d2Nal = N[C@H](Cc1ccc2ccccc2c1)C(=O)O; dPhe(2-F) = N[C@H](Cc1ccccc1F)C(=O)O; Cit = NC(=O)NCCC[C@H](N)C(=O)O; Nle = CCCC[C@H](N)C(=O)O; Orn = NCCC[C@H](N)C(=O)O; Dab = NCC[C@H](N)C(=O)O; Dap = NC[C@H](N)C(=O)O
# Biological target: human melanocortin-1 receptor hMCR-1 expressed by the human melanoma cell line HBL (human, UniProt Q01726 1-317)
# Assay: cell-based or functional assay
# human melanocortin-1 receptor hMCR-1 expressed by the human melanoma cell line HBL, sequence (Q01726 whole entry): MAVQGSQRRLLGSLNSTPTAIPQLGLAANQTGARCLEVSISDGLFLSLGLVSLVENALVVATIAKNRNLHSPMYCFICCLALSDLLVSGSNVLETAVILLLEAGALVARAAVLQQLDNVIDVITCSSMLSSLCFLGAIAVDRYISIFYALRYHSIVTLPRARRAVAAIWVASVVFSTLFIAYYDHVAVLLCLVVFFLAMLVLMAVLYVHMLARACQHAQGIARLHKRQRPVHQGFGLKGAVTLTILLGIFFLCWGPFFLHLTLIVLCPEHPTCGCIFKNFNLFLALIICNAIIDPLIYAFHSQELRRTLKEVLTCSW
Binder,MC-1 EC50 (average; cAMP HBL),MC-1 Emax (average; cAMP HBL)
Ac-[Nle]EH[dF]R[Dab]A-NH2 (lactam 2-6; SMILES CCCC[C@H](NC(C)=O)C(=O)N[C@H]1CCC(=O)NCC[C@@H](C(=O)N[C@@H](C)C(N)=O)NC(=O)[C@H](CCCNC(=N)N)NC(=O)[C@@H](Cc2ccccc2)NC(=O)[C@H](Cc2c[nH]cn2)NC1=O) [Ac-Nle-cyclo(Glu-His-D-Phe-Arg-Dab)-Ala-NH2],0.008 nM,97%
Ac-[Nle]EH[dF]R[Orn]W-NH2 (lactam 2-6) [Ac-Nle-cyclo(Glu-His-D-Phe-Arg-Orn)-Trp-NH2],–,91%
Ac-[Nle]EK[dF]R[Dab]W-NH2 (lactam 2-6) [Ac-Nle-cyclo(Glu-Lys-D-Phe-Arg-Dab)-Trp-NH2 (SEQ ID NO: 56)],–,108%
Ac-[Nle]EH[dF]R[Dab][d1Nal]-NH2 (lactam 2-6) [Ac-Nle-cyclo(Glu-His-D-Phe-Arg-Dab)-D-Nal 1-NH2],–,73%
Ac-[Nle][Dab]H[dF]R[Dab]W-NH2 (linker 2-6 via C(:O)‑(CH2)2‑C(:O)) [Ac-Nle-cyclo(Dab-His-D-Phe-Arg-Dab)-Trp-NH2 with bridge C(═O)-(CH2)2-C(═O)],–,92%
Ac-[Nle]E[Orn][dPhe(2-F)]R[Dab]-NH2 (lactam 2-6; SMILES CCCC[C@H](NC(C)=O)C(=O)N[C@H]1CCC(=O)NCC[C@@H](C(N)=O)NC(=O)[C@H](CCCNC(=N)N)NC(=O)[C@@H](Cc2ccccc2F)NC(=O)[C@H](CCCN)NC1=O) [Ac-Nle-cyclo(Glu-Orn-D-Phe(2-F)-Arg-Dab)-NH2],0.8 nM,95%
Ac-[dF]EH[dF]R[Dab]W-NH2 (lactam 2-6) [Ac-D-Phe-cyclo(Glu-His-D-Phe-Arg-Dab)-Trp-NH2],–,75%
Ac-[Nle]EH[dF]R[Dab]W-NH2 (lactam 2-6) [Ac-Nle-cyclo(Glu-His-D-Phe-Arg-Dab)-Trp-NH2],–,95%
Ac-[Nle]EH[dF]R[Dab][dW]-NH2 (lactam 2-6) [Ac-Nle-cyclo(Glu-His-D-Phe-Arg-Dab)-D-Trp-NH2],–,93%
Ac-[Nle]E[Cit][dF]R[Dab]W-NH2 (lactam 2-6) [Ac-Nle-cyclo(Glu-Cit-D-Phe-Arg-Dab)-Trp-NH2 (SEQ ID NO: 54)],–,97%
Ac-[Nle]E[Dab][dF]R[Dab]W-NH2 (lactam 2-6) [Ac-Nle-cyclo(Glu-Dab-D-Phe-Arg-Dab)-Trp-NH2 (SEQ ID NO: 57)],–,108%
Ac-[Nle]EH[dF]R[Dab][2Nal]-NH2 (lactam 2-6) [Ac-Nle-cyclo(Glu-His-D-Phe-Arg-Dab)-Nal 2-NH2],–,83%
Ac-[Nle]EH[dF]R[Dab]K-NH2 (lactam 2-6; SMILES CCCC[C@H](NC(C)=O)C(=O)N[C@H]1CCC(=O)NCC[C@@H](C(=O)N[C@@H](CCCCN)C(N)=O)NC(=O)[C@H](CCCNC(=N)N)NC(=O)[C@@H](Cc2ccccc2)NC(=O)[C@H](Cc2c[nH]cn2)NC1=O) [Ac-Nle-cyclo(Glu-His-D-Phe-Arg-Dab)-Lys-NH2 (SEQ ID NO: 55)],0.175 nM,91%
Ac-[Nle]EH[dF]R[Dap]W-OH (lactam 2-6) [Ac-Nle-cyclo(Glu-His-D-Phe-Arg-Dap)-Trp-OH],0.107 nM,81%
Ac-[Nle]EH[dF]R[Dab][d2Nal]-NH2 (lactam 2-6) [Ac-Nle-cyclo(Glu-His-D-Phe-Arg-Dab)-Nal 2-NH2 (SEQ ID NO: 14)],–,69%
Ac-[Nle]E[Orn][dPhe(2-Cl)]R[Dab]-NH2 (lactam 2-6; SMILES CCCC[C@H](NC(C)=O)C(=O)N[C@H]1CCC(=O)NCC[C@@H](C(N)=O)NC(=O)[C@H](CCCNC(=N)N)NC(=O)[C@@H](Cc2ccccc2Cl)NC(=O)[C@H](CCCN)NC1=O) [Ac-Nle-cyclo(Glu-Orn-D-Phe(2-Cl)-Arg-Dab)-NH2],1 nM,88%

# The next lines start with the values.
MC-1 EC50 (average; cAMP HBL),MC-1 Emax (average; cAMP HBL),Binder
0.076 nM,96%,Ac-[Nle]E[Orn][dPhe(4-Me)]R[Dab]-NH2 (lactam 2-6; SMILES CCCC[C@H](NC(C)=O)C(=O)N[C@H]1CCC(=O)NCC[C@@H](C(N)=O)NC(=O)[C@H](CCCNC(=N)N)NC(=O)[C@@H](Cc2ccc(C)cc2)NC(=O)[C@H](CCCN)NC1=O) [Ac-Nle-cyclo(Glu-Orn-D-Phe(4-Me)-Arg-Dab)-NH2]
0.18 nM,97%,Ac-[Nle]EP[dF]R[Dab]W-NH2 (lactam 2-6; SMILES CCCC[C@H](NC(C)=O)C(=O)N[C@H]1CCC(=O)NCC[C@@H](C(=O)N[C@@H](Cc2c[nH]c3ccccc23)C(N)=O)NC(=O)[C@H](CCCNC(=N)N)NC(=O)[C@@H](Cc2ccccc2)NC(=O)[C@@H]2CCCN2C1=O) [Ac-Nle-cyclo(Glu-Pro-D-Phe-Arg-Dab)-Trp-NH2]
1 nM,97%,"Ac-[Nle]E[Orn][dPhe(3,4-F)]R[Dab]-NH2 (lactam 2-6) [Ac-Nle-cyclo(Glu-Orn-D-Phe(3,4-F)-Arg-Dab)-NH2]"
–,109%,Ac-[Nle]E[Orn][dF]R[Dab]W-NH2 (lactam 2-6) [Ac-Nle-cyclo(Glu-Orn-D-Phe-Arg-Dab)-Trp-NH2 (SEQ ID NO: 58)]
0.12 nM,99%,Ac-[Nle]E[Orn][dPhe(4-OMe)]R[Dab]-NH2 (lactam 2-6) [Ac-Nle-cyclo(Glu-Orn-D-Phe(4-OMe)-Arg-Dab)-NH2]
1 nM,102%,Ac-[Nle]E[Orn][dPhe(4-F)]R[Dab]-NH2 (lactam 2-6; SMILES CCCC[C@H](NC(C)=O)C(=O)N[C@H]1CCC(=O)NCC[C@@H](C(N)=O)NC(=O)[C@H](CCCNC(=N)N)NC(=O)[C@@H](Cc2ccc(F)cc2)NC(=O)[C@H](CCCN)NC1=O) [Ac-Nle-cyclo(Glu-Orn-D-Phe(4-F)-Arg-Dab)-NH2]
0.5 nM,102%,Ac-[Nle]E[Orn][dF]R[Dab]-NH2 (lactam 2-6; SMILES CCCC[C@H](NC(C)=O)C(=O)N[C@H]1CCC(=O)NCC[C@@H](C(N)=O)NC(=O)[C@H](CCCNC(=N)N)NC(=O)[C@@H](Cc2ccccc2)NC(=O)[C@H](CCCN)NC1=O) [Ac-Nle-cyclo(Glu-Orn-D-Phe-Arg-Dab)-NH2]
0.1 nM,100%,Ac-[Nle]E[Orn][dPhe(4-Cl)]R[Dab]-NH2 (lactam 2-6; SMILES CCCC[C@H](NC(C)=O)C(=O)N[C@H]1CCC(=O)NCC[C@@H](C(N)=O)NC(=O)[C@H](CCCNC(=N)N)NC(=O)[C@@H](Cc2ccc(Cl)cc2)NC(=O)[C@H](CCCN)NC1=O) [Ac-Nle-cyclo(Glu-Orn-D-Phe(4-Cl)-Arg-Dab)-NH2]
2 nM,86%,Ac-[Nle]E[Orn][dPhe(3-Cl)]R[Dab]-NH2 (lactam 2-6; SMILES CCCC[C@H](NC(C)=O)C(=O)N[C@H]1CCC(=O)NCC[C@@H](C(N)=O)NC(=O)[C@H](CCCNC(=N)N)NC(=O)[C@@H](Cc2cccc(Cl)c2)NC(=O)[C@H](CCCN)NC1=O) [Ac-Nle-cyclo(Glu-Orn-D-Phe(3-Cl)-Arg-Dab)-NH2]
–,102%,Ac-[Nle]EP[dF]R[Dab]-NH2 (lactam 2-6) [Ac-Nle-cyclo(Glu-Pro-D-Phe-Arg-Dab)-NH2]
